{"source": "patent US20140080161A1", "about": "“PHOSPHATASE COUPLED KINASE ASSAY” (RESEARCH AND DIAGNOSTIC SYSTEMS, INC., priority 2010, published 2014)", "molecules": {"B1": {"name": "rhCD39L2: recombinant human CD39L2, nucleotide phosphatase preferring ADP over ATP, used for coupling (protein, UniProt O75354 1-484, looked up)", "Ectonucleoside triphosphate …": "MKKGIRYETSRKTSYIFQQPQHGPWQTRMRKISNHGSLRVAKVAYPLGLCVGVFIYVAYIKWHRATATQAFFSITRAAPGARWGQQAHSPLGTAADGHEVFYGIMFDAGSTGTRVHVFQFTRPPRETPTLTHETFKALKPGLSAYADDVEKSAQGIRELLDVAKQDIPFDFWKATPLVLKATAGLRLLPGEKAQKLLQKVKKVFKASPFLVGDDCVSIMNGTDEGVSAWITINFLTGSLKTPGGSSVGMLDLGGGSTQIAFLPRVEGTLQASPPGYLTALRMFNRTYKLYSYSYLGLGLMSARLAILGGVEGQPAKDGKELVSPCLSPSFKGEWEHAEVTYRVSGQKAAASLHELCAARVSEVLQNRVHRTEEVKHVDFYAFSYYYDLAAGVGLIDAEKGGSLVVGDFEIAAKYVCRTLETQPQSSPFSCMDLTYVSLLLQEFGFPRSKVLKLTRKIDNVETSWALGAIFHYIDSLNRQKSPAS"}}, "format_in_all_cases": "biochemical", "key": {"[1]": {"experiment": "ADP hydrolysis curve with increasing amounts of phosphatase, free phosphate by Malachite Green", "text": "The relative activity of the phosphatase on ADP and ATP can be measured by creating hydrolysis curves for ADP and ATP. For example, such hydrolysis curves may be created by performing a series of reactions separately combining set quantities of ADP or ATP with varying quantities of phosphatase and detecting the free phosphate produced. An example of such curves is described in Example 1 below. The resulting phosphate levels (or OD readings, which directly correspond to the phosphate levels) can be plotted against the amount of phosphatase used. The phosphate level or OD readings can be compared at the same quantity of the phosphatase to determine the relative activity of the phosphatase for ADP as compared to ATP. […] The amount of phosphatase to be used for kinase reactions is preferably selected from within the rapidly rising portion of the ADP hydrolysis curve. In addition, the relative activity of the phosphatase for ADP versus ATP is preferably compared within this rapidly rising portion of the hydrolysis curve, at or near the steepest portion of the curve. At phosphatase levels below this range, the generated signals are weak, while at phosphatase levels above this range, the ADP hydrolysis approaches completion, which could underestimate the activity of the phosphatase on ADP due to exhaustion of the substrate.\nThe kinase reactions were carried out in 50 μL of kinase assay buffer including 25 mM Tris, 150 mM NaCl, 5 mM MgCl2, and 5 mM CaCl2 at pH 7.5 in a 96 well plate at room temperature. Each reaction was stopped with 30 μL of Malachite Reagent A and 100 μL of water. The color was developed with 30 μL Malachite Reagent B. The plate was read at 620 nm with a multi-well plate reader. If the predicted phosphate content in the reaction was above 4,000 pmol, the reaction was diluted before phosphate detection.\nIn this experiment, the relative activity of rhCD39L2 on ADP and ATP was determined. In a first series of reactions, 100 nmol of 2 mM ATP was combined with increasing amounts of rhCD39L2 (0.03125 μg, 0.0625 μg, 0.125 μg, 0.25 μg, 0.5 μg) for 20 minutes. Likewise in a second series of reactions, 100 nmol of 2 mM ADP was combined with the same increasing amounts of rhCD39L2 for 20 minutes. The reactions were stopped after 20 minutes and free phosphate was measured using the Malachite Green assay as described above.\nThe relative activity of recombinant mouse CD 39L2 (rmCD39L2) on ADP and ATP was determined in a series of reactions similar to Example 1. 100 nmol of 2 mM ATP was combined with increasing amounts of rmCD39L2 (0.03125 μg, […], 0.125 0.25 μg, 0.5 μg). Likewise in a second series of reactions, 100 nmol of 2 mM ADP was combined with the same increasing amounts of rmCD39L2. The reactions were stopped after 5 minutes and free phosphate was measured using the Malachite Green assay as described above.\nThe experiment of Example 1 was repeated using recombinant human CD39L4 (rhCD39L4). 100 nmol of ATP (2 mM) was combined with increasing amounts of rhCD39L4 (0.03125 μg, 0.0625 μg, 0.125 μg, 0.25 μg, 0.5 μg, 1.0 μg). Likewise in a second series of reactions, 100 nmol of ADP (2 mM) was combined with the same increasing amounts of rhCD39L4 for 5 minutes. The reactions were stopped after 5 minutes and free phosphate was measured using the Malachite Green assay as described above. […] As such, the necessary preference of the phosphatase for ADP as compared to ATP is present."}, "[2]": {"experiment": "Coupling efficiency: ADP hydrolysis in presence versus absence of ATP", "settings": "for Slope of ADP Hydrolysis Curve (Si): 0.2 μg rhCD39L2, 20 minutes", "text": "The coupling efficiency of a phosphatase may be determined by measuring the rates of ADP hydrolysis in the presence of ATP, and in the absence of ATP, under conditions which are otherwise the same. The coupling efficiency is the ratio of the ADP hydrolysis rate in the presence of ATP to the ADP hydrolysis rate in the absence of ATP. As exemplified in Example 3 (FIG. 4), the coupling efficiency in the presence of i mM of ATP, Ci, is equal to the ratio of the slope of the corresponding ADP hydrolysis curve in the presence of i mM of ATP, Si, to the slope of the ADP hydrolysis curve in the absence of ATP, So. The coupling efficiency may be characterized by the following formula: […]\nThe coupling efficiency will vary depending upon the concentration of ATP. As such, the Ci may be calculated at various ATP concentrations and the results may be plotted to give a curve of coupling efficiency versus ATP concentration. In this way, the coupling efficiency may be determined for any concentration of ATP, such as the beginning concentration of ATP used in a reaction. The coupling efficiency can be obtained once the conditions for a kinase reaction are determined and may then be used to adjust the final measured kinase activity depending upon the ATP concentration. For example, the final measured ADP production may be divided by the coupling efficiency (assuming that the ATP concentration throughout the reaction is approximately constant) in order to calculate the actual ADP production. The coupling efficiency allows for measuring the kinase activity even at high levels of ATP, such as at intracellular ATP concentration levels, about 1 mM, which may be most biologically relevant for some reactions.\nThis experiment measured the coupling efficiency of CD39L2, which was the ratio of the rate of ADP hydrolysis in the presence of ATP to the rate of ADP hydrolysis in the absence of ATP, under conditions which were otherwise identical. In a series of reactions, increasing amounts of ADP (0 to 15 nmol, within the coupling capacity) were hydrolyzed with 0.2 μg of rhCD39L2 in the presence of various concentrations of ATP (0, 0.156, 0.312, 0.625, 1.25, 2.5, or 5 mM). The reactions were stopped after 20 minutes and the Malachite Green assay was performed and OD readings were taken at 620 nm.\nCoupling efficiency in the presence of i mM of ATP (Ci) was determined from the ratio of the slope of the ADP hydrolysis curve in the presence of i mM ATP (Si) to the slope of the ADP hydrolysis curve in the absence of ATP (S0) according to Equation 1. For each concentration of ATP, Ci was calculated. […] The coupling efficiency may then be used to correct the data obtained for any competitive inhibition that might be caused by the ATP, especially at high concentrations of ATP."}, "[3]": {"experiment": "ATP hydrolysis curve with increasing amounts of phosphatase, free phosphate by Malachite Green", "settings": "0.25 μg phosphatase, 100 nmol of 2 mM ATP, 20 minutes", "text": "The relative activity of the phosphatase on ADP and ATP can be measured by creating hydrolysis curves for ADP and ATP. For example, such hydrolysis curves may be created by performing a series of reactions separately combining set quantities of ADP or ATP with varying quantities of phosphatase and detecting the free phosphate produced. An example of such curves is described in Example 1 below. The resulting phosphate levels (or OD readings, which directly correspond to the phosphate levels) can be plotted against the amount of phosphatase used. The phosphate level or OD readings can be compared at the same quantity of the phosphatase to determine the relative activity of the phosphatase for ADP as compared to ATP. […]\nThe kinase reactions were carried out in 50 μL of kinase assay buffer including 25 mM Tris, 150 mM NaCl, 5 mM MgCl2, and 5 mM CaCl2 at pH 7.5 in a 96 well plate at room temperature. […] The color was developed with 30 μL Malachite Reagent B. The plate was read at 620 nm with a multi-well plate reader. […]\nIn this experiment, the relative activity of rhCD39L2 on ADP and ATP was determined. […] The reactions were stopped after 20 minutes and free phosphate was measured using the Malachite Green assay as described above.\nThe relative activity of recombinant mouse CD 39L2 (rmCD39L2) on ADP and ATP was determined in a series of reactions similar to Example 1. […]"}}}
{"molecule": "B1", "values": [{"measurement": "phosphate released from ADP", "setting": "[1]; 0.25 μg phosphatase, 100 nmol of 2 mM ADP, 20 minutes", "result": "about 80 nmol"}, {"measurement": "fold more active on ADP", "setting": "[1]; Example 1, 20 minutes, allowing for two hydrolyzable phosphates of ATP", "result": "about 70 fold"}, {"measurement": "fold more phosphate released from ADP than from ATP", "setting": "[1]; rising phases of the ADP hydrolysis curve, 20 minutes", "result": 35, "unit": "fold"}, {"measurement": "coupling efficiency", "setting": "[2]; 0.2 mM ATP, based on data of Example 3", "result": 0.9}, {"measurement": "coupling efficiency", "setting": "[2]; 2 mM ATP, based on data of Example 3", "result": 0.51}, {"measurement": "coupling efficiency", "setting": "[2]; 4 mM ATP, predicted from data of Example 3 (FIG. 5)", "result": 0.4}, {"measurement": "Coupling Efficiency (Ci)", "setting": "[2]; ATP 0 mM", "result": 1.00}, {"measurement": "Slope of ADP Hydrolysis Curve (Si)", "setting": "[2]; ATP 0 mM", "result": 0.280}, {"measurement": "Coupling Efficiency (Ci)", "setting": "[2]; ATP 0.156 mM", "result": 0.97}, {"measurement": "Slope of ADP Hydrolysis Curve (Si)", "setting": "[2]; ATP 0.156 mM", "result": 0.271}, {"measurement": "Coupling Efficiency (Ci)", "setting": "[2]; ATP 0.312 mM", "result": 0.74}, {"measurement": "Slope of ADP Hydrolysis Curve (Si)", "setting": "[2]; ATP 0.312 mM", "result": 0.207}, {"measurement": "Coupling Efficiency (Ci)", "setting": "[2]; ATP 0.625 mM", "result": 0.61}, {"measurement": "Slope of ADP Hydrolysis Curve (Si)", "setting": "[2]; ATP 0.625 mM", "result": 0.170}, {"measurement": "Coupling Efficiency (Ci)", "setting": "[2]; ATP 1.25 mM", "result": 0.56}, {"measurement": "Slope of ADP Hydrolysis Curve (Si)", "setting": "[2]; ATP 1.25 mM", "result": 0.157}, {"measurement": "Coupling Efficiency (Ci)", "setting": "[2]; ATP 2.50 mM", "result": 0.48}, {"measurement": "Slope of ADP Hydrolysis Curve (Si)", "setting": "[2]; ATP 2.50 mM", "result": 0.134}, {"measurement": "Coupling Efficiency (Ci)", "setting": "[2]; ATP 5.0 mM", "result": 0.34}, {"measurement": "Slope of ADP Hydrolysis Curve (Si)", "setting": "[2]; ATP 5.0 mM", "result": 0.096}, {"measurement": "phosphate released from ATP", "setting": "[3]", "result": "less than 3 nmole"}]}
